In the supplement of paper PMC7125110:
± gives the standard error. For part of these data: Variants at the floor of the assay were thinned out.

B1: glmS ribozyme (parent)
chain: AUAAAAGCGCCAGAACUACAGAAAUGUAGUUGACGAGGAGGAGGUUUAUCGAAUUUUCGGCGGAUGCCUCCAAA

Legend:
Details in all cases: with glucosamine-6-phosphate
glucosamine-6-phosphate [1] = variants of: B1; assay: kcat; higher = faster cleavage; RNA array
Procedure, shortened: (§1)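 Tiles of sequenced MiSeq chips were imaged over ~14 h at 37 °C. On them, barcoded ribozyme variants had been transcribed in situ by E. coli RNA polymerase and were tracked via a hybridised Cy3 probe while glucosamine-6-phosphate (40 μM to 10 mM) in HEPES/KCl/Mg(OAc)2 buffer flowed in. Per-tile medians, normalised to baseline and to non-cleaving reference variants, were fit to one- or two-exponential decays for kobs, and weighted Michaelis–Menten fits gave kcat and KM.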

glucosamine-6-phosphate [2] = variants of: B1; assay: KM; higher = weaker cofactor use; RNA array
Procedure, shortened: as §1

glucosamine-6-phosphate [3] = variants of: B1; assay: self-cleavage kobs at 40 uM GlcN6P; higher = faster cleavage; RNA array
Procedure, shortened: as §1

glucosamine-6-phosphate [4] = variants of: B1; assay: self-cleavage kobs at 160 uM GlcN6P; higher = faster cleavage; RNA array
Procedure, shortened: as §1

glucosamine-6-phosphate [5] = variants of: B1; assay: self-cleavage kobs at 640 uM GlcN6P; higher = faster cleavage; RNA array
Procedure, shortened: as §1

glucosamine-6-phosphate [6] = variants of: B1; assay: self-cleavage kobs at 2500 uM GlcN6P; higher = faster cleavage; RNA array
Procedure, shortened: as §1

glucosamine-6-phosphate [7] = variants of: B1; assay: self-cleavage kobs at 10000 uM GlcN6P; higher = faster cleavage; RNA array
Procedure, shortened: as §1

| Variant | kcat (glucosamine-6-phosphate [1]) [s⁻¹] | KM (glucosamine-6-phosphate [2]) [µM] | self-cleavage kobs at 40 uM GlcN6P (glucosamine-6-phosphate [3]) [s⁻¹] | self-cleavage kobs at 160 uM GlcN6P (glucosamine-6-phosphate [4]) [s⁻¹] | self-cleavage kobs at 640 uM GlcN6P (glucosamine-6-phosphate [5]) [s⁻¹] | self-cleavage kobs at 2500 uM GlcN6P (glucosamine-6-phosphate [6]) [s⁻¹] | self-cleavage kobs at 10000 uM GlcN6P (glucosamine-6-phosphate [7]) [s⁻¹] |
| --- | --- | --- | --- | --- | --- | --- | --- |
| AUAAAAGCGCCAGAACUACAGAAAUGUAGUUGACGAGGAGGAGGUUUAUCGAAUUUUCGGCGGAUUGCUCCAAA [G66U C67G] | 0.000827 ± 0.00015 | 2210 ± 730 | 3e-05 ± 7.9e-06 | 4.82e-05 ± 7.9e-06 | 0.000262 ± 5.1e-05 | 0.000418 ± 4.7e-05 | 0.000687 ± 6.4e-05 |
| AUAAAAGCGCCAGAACUACAGAAAUGUAGUUGACGAGGAGGAGGUUUAUCGAAUUUUUGGCGGAUGCCCCCAAA [C58U U69C] | 2.82e-05 ± 7e-06 |  |  |  |  | 5.56e-05 ± 1.6e-05 | 2.52e-05 ± 5.6e-06 |
| AUAAAAGCGCCAGAACUACAGAAAUGUAGUAGACGAGGAGGAGGUUUAUCGAAUUUUCGGCGUAUGCCGCCAAA [U31A G63U U69G] | 3.2e-05 ± 9.9e-06 |  |  |  |  |  |  |
| AUAAAAGCGCCAGACCUACAGAAAUGUAGUUGACGAGGAGGAGGCUUAUCGAAUUUUCGGCGGAUGCCUCCAAA [A15C U45C] | 0.000613 ± 8.6e-05 | 5480 ± 1200 |  |  | 6.81e-05 ± 1.6e-05 | 0.000176 ± 3.7e-05 | 0.000409 ± 7.5e-05 |
| AUAAAAGCGCCAGAACUACAGAAAUGUAGUUGAGGAGGAGGAGGUUUAUCGAAUUUUCGGCGGAUGCAUCCAAA [C34G C68A] | 2.06e-05 ± 8.4e-06 |  |  |  |  |  |  |
| AUAAAAGCGCAAGAACUACAGAAAUGUAGUUAACGAGGAGGAGGUUUAUCGAAUUUUCGGCGGAUGCCUCCAAA [C11A G32A] | 1.09e-05 ± 7.8e-07 |  |  |  |  |  |  |
| AUAAAAGCGCCAGAACUACAGAAAUGUAGUGGAAGAGGAGGAGGUUUAUCGAAUUUUCGUCGGAUGACUCCAAA [U31G C34A G60U C67A] | < 1e-05 |  |  |  |  |  |  |
| AUAAAAGCGCCAUAACUACAGAAAUGUAGUUGACGAGGAGGAGGUUUAUCGAAUUUUCGGCGGAAGCCUCCAAA [G13U U65A] | 0.000112 ± 6.4e-06 | 1260 ± 270 |  |  |  | 7.82e-05 ± 1.7e-05 | 9.77e-05 ± 1.8e-05 |
| AUAAAAGCGCCAGAAUUACAGAAAUGUAGUUGACGAGGAGGAGGUUUAUCGAAUUUUCGGUGGAUGCCUCCAAA [C16U C61U] | 1.75e-05 ± 1.4e-06 |  |  |  |  |  |  |
| AUAAAAGCGCCAGAACUACAGAAAUGUAGUUGACGAGGAGGAGGUUUAUCGAAUUUUUUGCGGAUGCCUCCAAA [C58U G59U] | < 1e-05 |  | < 1e-05 |  | < 1e-05 |  | < 1e-05 |
| AUAAAAGCGCCAGAACUACAGAAAUGUAGCUGACGAGGCGGAGGUUUAUCGAAUUUUCGGCGGAUGCCUCCAAA [U30C A39C] | 0.000139 ± 1.1e-05 | 4210 ± 820 |  |  |  | 5.33e-05 ± 1e-05 | 9.75e-05 ± 9.4e-06 |
| AUAAAUGCGCCAGAACUACAGAAAUGUAGUUGACGAGGAGGAGGUUUAUCGAAUUUUCGGCGGAUGCCUCAAAA [A6U C71A] | 5.43e-05 ± 1.1e-06 | 1730 ± 140 |  |  |  | 3.22e-05 ± 1.3e-05 | 4.63e-05 ± 1.1e-05 |
